T1: GST-LGN/GPSM2 wild type, full-length recombinant (pGEX 6P-2-LGN/GPSM2, E. coli)
T1 chain: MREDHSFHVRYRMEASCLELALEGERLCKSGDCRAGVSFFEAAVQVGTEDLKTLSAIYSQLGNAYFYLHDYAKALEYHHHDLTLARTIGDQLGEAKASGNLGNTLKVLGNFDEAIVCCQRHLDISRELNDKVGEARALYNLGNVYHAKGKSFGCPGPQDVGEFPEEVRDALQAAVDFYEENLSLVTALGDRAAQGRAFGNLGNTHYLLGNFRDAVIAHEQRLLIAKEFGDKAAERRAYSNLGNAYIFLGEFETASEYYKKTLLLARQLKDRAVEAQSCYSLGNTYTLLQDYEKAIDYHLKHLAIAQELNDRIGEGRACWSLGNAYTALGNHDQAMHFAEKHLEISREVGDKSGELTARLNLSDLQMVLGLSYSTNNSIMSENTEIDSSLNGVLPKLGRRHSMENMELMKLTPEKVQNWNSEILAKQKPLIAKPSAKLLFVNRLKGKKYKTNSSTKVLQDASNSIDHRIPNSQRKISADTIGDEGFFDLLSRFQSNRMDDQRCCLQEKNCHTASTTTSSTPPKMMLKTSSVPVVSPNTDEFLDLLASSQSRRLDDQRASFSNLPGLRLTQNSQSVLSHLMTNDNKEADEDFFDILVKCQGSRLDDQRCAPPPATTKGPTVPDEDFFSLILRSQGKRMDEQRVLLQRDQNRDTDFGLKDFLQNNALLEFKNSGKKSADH

T2: His-tagged full-length recombinant LGN/GPSM2 (pET28a-LGN/GPSM2, E. coli)
T2 chain: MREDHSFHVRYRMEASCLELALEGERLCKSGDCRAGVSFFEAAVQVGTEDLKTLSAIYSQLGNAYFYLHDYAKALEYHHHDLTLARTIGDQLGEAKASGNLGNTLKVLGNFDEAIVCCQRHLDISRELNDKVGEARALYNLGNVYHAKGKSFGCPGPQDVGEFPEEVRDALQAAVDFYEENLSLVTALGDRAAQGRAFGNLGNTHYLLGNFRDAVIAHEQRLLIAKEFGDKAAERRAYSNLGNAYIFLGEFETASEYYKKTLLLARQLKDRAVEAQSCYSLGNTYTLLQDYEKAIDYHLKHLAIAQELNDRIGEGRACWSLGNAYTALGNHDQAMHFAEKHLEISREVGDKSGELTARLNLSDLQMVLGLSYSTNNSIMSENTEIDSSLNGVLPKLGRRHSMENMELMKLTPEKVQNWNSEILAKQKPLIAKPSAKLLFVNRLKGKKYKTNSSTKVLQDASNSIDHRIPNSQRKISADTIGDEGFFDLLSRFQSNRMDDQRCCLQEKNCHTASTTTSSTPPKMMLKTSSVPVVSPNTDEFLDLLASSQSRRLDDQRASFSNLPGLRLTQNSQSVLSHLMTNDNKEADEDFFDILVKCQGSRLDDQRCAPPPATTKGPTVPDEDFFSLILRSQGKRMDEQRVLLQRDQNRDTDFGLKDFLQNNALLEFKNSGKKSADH

B1: recombinant Aurora kinase A (SignalChem) (protein)
chain: MDRSKENCISGPVKATAPVGGPKRVLVTQQFPCQNPLPVNSGQAQRVLCPSNSSQRIPLQAQKLVSSHKPVQNQKQKQLQATSVPHPVSRPLNNTQKSKQPLPSAPENNPEEELASKQKNEESKKRQWALEDFEIGRPLGKGKFGNVYLAREKQSKFILALKVLFKAQLEKAGVEHQLRREVEIQSHLRHPNILRLYGYFHDATRVYLILEYAPLGTVYRELQKLSKFDEQRTATYITELANALSYCHSKRVIHRDIKPENLLLGSAGELKIADFGWSVHAPSSRRTTLCGTLDYLPPEMIEGRMHDEKVDLWSLGVLCYEFLVGKPPFEANTYQETYKRISRVEFTFPDFVTEGARDLISRLLKHNPSQRPMLREVLEHPWITANSSKPSNCQNKESASKQS
B2: recombinant Aurora kinase B (SignalChem) (protein)
chain: MAQKENSYPWPYGRQTAPSGLSTLPQRVLRKEPVTPSALVLMSRSNVQPTAAPGQKVMENSSGTPDILTRHFTIDDFEIGRPLGKGKFGNVYLAREKKSHFIVALKVLFKSQIEKEGVEHQLRREIEIQAHLHHPNILRLYNYFYDRRRIYLILEYAPRGELYKELQKSCTFDEQRTATIMEELADALMYCHGKKVIHRDIKPENLLLGLKGELKIADFGWSVHAPSLRRKTMCGTLDYLPPEMIEGRMHNEKVDLWCIGVLCYELLVGNPPFESASHNETYRRIVKVDLKFPASVPMGAQDLISKLLRHNPSERLPLAQVSAHPWVRANSRRVLPPSALQSVA
B3: recombinant full-length PBK/TOPK (Invitrogen) (protein)
chain: MEGISNFKTPSKLSEKKKSVLCSTPTINIPASPIMQKLGFGTGVNVYLMKRSPRGLSHSPWAVKKINPICNDHYRSVYQKRLMDEAKILKSLHHPNIVGYRAFTEASDGSLCLAMEYGGEKSLNDLIEERYKASQDPFPAAIILKVALNMARGLKYLHQEKKLLHGDIKSSNVVIKGDFETIKICDVGVSLPLDENMTVTDPEACYIGTEPWKPKEAVEENGVITDKADIFAFGLTLWEMMTLSIPHINLSNDDDDEDKTFDESDFDDEAYYAALGTRPPINMEELDESYQKVIELFSVCTNEDPKDRPSAAHIVEALETDV

Key:
[1] = target: T1, GST-LGN/GPSM2 wild type, full-length …
[2] = target: T2, His-tagged full-length recombinant …

Protein	in vitro kinase assay (autoradiography, [gamma-32P]-ATP) [1]	in vitro kinase assay (autoradiography, [gamma-32P]-ATP) (GST-LGN/GPSM2 S401A)	in vitro kinase assay (western blot with anti-phosphorylated threonine antibody) [2]	in vitro kinase assay with GST-LGN/GPSM2 WT and alanine substitutes (autoradiography) [1]
B1	the phosphorylation of GST-LGN/GPSM2 by both Aurora kinase A and B	Substitution of serine 401 to alanine distinguished the phosphorylation of GST-LGN/GPSM2 by both Aurora kinase A and B		
B2	the phosphorylation of GST-LGN/GPSM2 by both Aurora kinase A and B	Substitution of serine 401 to alanine distinguished the phosphorylation of GST-LGN/GPSM2 by both Aurora kinase A and B		
B3	The autoradiography images also showed phosphorylation of the LGN/GPSM2 protein by PBK/TOPK (FIG. 8C)		found phosphorylation of the LGN/GPSM2 protein by PBK/TOPK in vitro (FIG. 8B)	PBK/TOPK, which was has been shown to phosphorylate LGN/GPSM2 in FIG. 8, did not phosphorylate these amino acids identified here (FIG. 10C)

Reference: patent publication US20110313018
